The values below come from FireProtDB (doi:10.1021/bi034721x).

The labels stand for the following.
B1: Parvalbumin alpha, P02625 (parent)
chain: MSMTDLLSAEDIKKAIGAFTAADSFDHKKFFQMVGLKKKSADDVKKVFHILDKDKSGFIEEDELGSILKGFSSDARDLSAKETKTLMAAGDKDGDGKIGVEEFSTLVAES

Variants of B1 are the subject of this series. The settings on record: Rattus norvegicus, pH 7.4, Thermal, DSC, sodium phosphate 10 mM, NaCl 0.20 M, structure 1RTP, whole UniProt chain shown.

Where “and” joins values, the source holds several entries; their conditions need not be identical. Equal entries are not always repeated.

Usually Tm stands for the temperature at which the thermal transition is half complete. Take MSMTDLLSAEDIKKAIGAFTAADSFDHKKFFQMVGLKKKSADDVKKVFHILDKDKSGFIEEDELGSILKGFSSDARDLSASETKTLMAAGDKDGDGKIGVEEFSTLVAES [K81S]: the Tm was determined as 44.5 °C; the “change of melting temperature, mutant - wild type (higher = more stable)” value (“change of melting temperature, mutant” below) is -1.3 °C; the “unfolding enthalpy (calorimetric)” value worked out at 71 kcal/mol. Also, for the setting “45.8 °C”, the “ddG of mutation (higher = less stable)” value was 0.29 kcal/mol and the “heat capacity change of unfolding” value stood at 1.4 kcal/mol/K.
Turning to MSMTDLLSAEDIKKAIGAFTAPDSFDHKKFFQMVGLKKKSADDVKKVFHILDKDKSGFIEEDELGSILKGFSSDARDLSASETKTLMAAGDKDGDGKIGVEEFSTLVAES [A22P K81S], the Tm is 47.8 °C; the “change of melting temperature, mutant” value amounted to 2 °C; the “unfolding enthalpy (calorimetric)” value stood at 75 kcal/mol. Further, under “45.8 °C”, the “ddG of mutation (higher = less stable)” value was -0.45 kcal/mol and the “heat capacity change of unfolding” value was 1.4 kcal/mol/K.
For the variant MSMTDLLSAEDIKKAIGAFTAPDSFDHKKFFQMVGLKKKSADDVKKVFHILDKDKSGFIEEDELGSILKGFSSDARDLSAKETKTLMAAGDKDGDGKIGVEEFSTLVAES [A22P], the “unfolding enthalpy (calorimetric)” value was 52 kcal/mol and 63 kcal/mol. Further, where the note is “44.2 °C”, the “ddG of mutation (higher = less stable)” value was -0.95 kcal/mol and the “heat capacity change of unfolding” value is 1.4 kcal/mol/K. Moreover, under “45.8 °C”, the “ddG of mutation (higher = less stable)” value is 1.92 kcal/mol and the “heat capacity change of unfolding” value amounted to 1.4 kcal/mol/K.
For the variant MSMTDLLSAEDIKKAIGAFTAADSFDPKKFFQMVGLKKKSADDVKKVFHILDKDKSGFIEEDELGSILKGFSSDARDLSAKETKTLMAAGDKDGDGKIGVEEFSTLVAES [H27P], the midpoint of thermal melting (Tm) was 51.4 °C; the “change of melting temperature, mutant” value turned out to be 5.6 °C; the “unfolding enthalpy (calorimetric)” value stood at 80 kcal/mol. Moreover, under “45.8 °C”, the “ddG of mutation (higher = less stable)” value is -1.25 kcal/mol and the “heat capacity change of unfolding” value was 1.4 kcal/mol/K.
For MSMTDLLSAEDIKKAIGAFTAPDSFDPKKFFQMVGLKKKSADDVKKVFHILDKDKSGFIEEDELGSILKGFSSDARDLSAKETKTLMAAGDKDGDGKIGVEEFSTLVAES [A22P H27P], in that order: 43.6 °C, -2.2 °C, 62 kcal/mol, 0.5 kcal/mol and 1.4 kcal/mol/K.
